Legend:
purified protein = substrate: Nc1ncnc2c1ncn2[C@@H]1O[C@H](COP(=O)(O)OP(=O)(O)OP(=O)(O)O)[C@@H](O)[C@H]1O; test: purified protein; format: biochemical, Homo sapiens; details: Mg2+ nucleotide binding domain
[1] = substrate: Nc1ncnc2c1ncn2[C@@H]1O[C@H](COP(=O)(O)OP(=O)(O)OP(=O)(O)O)[C@@H](O)[C@H]1O; test: Michaelis-Menten ATPase kinetics; format: biochemical, Homo sapiens; details: Mg2+ nucleotide binding domain

| Protein | Km (purified protein) [µM] | Vmax (purified protein) [µM/min] | Km [1] [µM] | Vmax [1] [µM/min] |
| --- | --- | --- | --- | --- |
| ABCB7 (Homo sapiens) (protein) HSAILIRPLVSVSGSGPQWRPHQLGALGTARAYQIPESLKSITWQRLGKGNSGQFLDAAKALQVWPLIEKRTCWHGHAGGGLHTDPKEGLKDVDTRKIIKAMLSYVWPKDRPDLRARVAISLGFLGGAKAMNIVVPFMFKYAVDSLNQMSGNMLNLSDAPNTVATMATAVLIGYGVSRAGAAFFNEVRNAVFGKVAQNSIRRIAKNVFLHLHNLDLGFHLSRQTGALSKAIDRGTRGISFVLSALVFNLLPIMFEVMLVSGVLYYKCGAQFALVTLGTLGTYTAFTVAVTRWRTRFRIEMNKADNDAGNAAIDSLLNYETVKYFNNERYEAQRYDGFLKTYETASLKSTSTLAMLNFGQSAIFSVGLTAIMVLASQGIVAGTLTVGDLVMVNGLLFQLSLPLNFLGTVYRETRQALIDMNTLFTLLKVDTQIKDKVMASPLQITPQTATVAFDNVHFEYIEGQKVLSGISFEVPAGKKVAIVGGSGSGKSTIVRLLFRFYEPQKGSIYLAGQNIQDVSLESLRRAVGVVPQDAVLFHNTIYYNLLYGNISASPEEVYAVAKLAGLHDAILRMPHGYDTQVGERGLKLSGGEKQRVAIARAILKDPPVILYDEATSSLDSITEETILGAMKDVVKHRTSIFIAHRLSTVVDADEIIVLDQGKVAERGTHHGLLANPHSIYSEMWHTQSSRVQNHDNPKWEAKKENISKEEERKKLQEEIVNSVKGCGNCSC | 5300 ± 1000 | 0.58 |  |  |
| ABCB7 (Homo sapiens; E433D) (protein) HSAILIRPLVSVSGSGPQWRPHQLGALGTARAYQIPESLKSITWQRLGKGNSGQFLDAAKALQVWPLIEKRTCWHGHAGGGLHTDPKEGLKDVDTRKIIKAMLSYVWPKDRPDLRARVAISLGFLGGAKAMNIVVPFMFKYAVDSLNQMSGNMLNLSDAPNTVATMATAVLIGYGVSRAGAAFFNEVRNAVFGKVAQNSIRRIAKNVFLHLHNLDLGFHLSRQTGALSKAIDRGTRGISFVLSALVFNLLPIMFEVMLVSGVLYYKCGAQFALVTLGTLGTYTAFTVAVTRWRTRFRIEMNKADNDAGNAAIDSLLNYETVKYFNNERYEAQRYDGFLKTYETASLKSTSTLAMLNFGQSAIFSVGLTAIMVLASQGIVAGTLTVGDLVMVNGLLFQLSLPLNFLGTVYRDTRQALIDMNTLFTLLKVDTQIKDKVMASPLQITPQTATVAFDNVHFEYIEGQKVLSGISFEVPAGKKVAIVGGSGSGKSTIVRLLFRFYEPQKGSIYLAGQNIQDVSLESLRRAVGVVPQDAVLFHNTIYYNLLYGNISASPEEVYAVAKLAGLHDAILRMPHGYDTQVGERGLKLSGGEKQRVAIARAILKDPPVILYDEATSSLDSITEETILGAMKDVVKHRTSIFIAHRLSTVVDADEIIVLDQGKVAERGTHHGLLANPHSIYSEMWHTQSSRVQNHDNPKWEAKKENISKEEERKKLQEEIVNSVKGCGNCSC |  |  | 850 ± 280 | 0.35 |
| ABCB7 (Homo sapiens; E433Q) (protein) HSAILIRPLVSVSGSGPQWRPHQLGALGTARAYQIPESLKSITWQRLGKGNSGQFLDAAKALQVWPLIEKRTCWHGHAGGGLHTDPKEGLKDVDTRKIIKAMLSYVWPKDRPDLRARVAISLGFLGGAKAMNIVVPFMFKYAVDSLNQMSGNMLNLSDAPNTVATMATAVLIGYGVSRAGAAFFNEVRNAVFGKVAQNSIRRIAKNVFLHLHNLDLGFHLSRQTGALSKAIDRGTRGISFVLSALVFNLLPIMFEVMLVSGVLYYKCGAQFALVTLGTLGTYTAFTVAVTRWRTRFRIEMNKADNDAGNAAIDSLLNYETVKYFNNERYEAQRYDGFLKTYETASLKSTSTLAMLNFGQSAIFSVGLTAIMVLASQGIVAGTLTVGDLVMVNGLLFQLSLPLNFLGTVYRQTRQALIDMNTLFTLLKVDTQIKDKVMASPLQITPQTATVAFDNVHFEYIEGQKVLSGISFEVPAGKKVAIVGGSGSGKSTIVRLLFRFYEPQKGSIYLAGQNIQDVSLESLRRAVGVVPQDAVLFHNTIYYNLLYGNISASPEEVYAVAKLAGLHDAILRMPHGYDTQVGERGLKLSGGEKQRVAIARAILKDPPVILYDEATSSLDSITEETILGAMKDVVKHRTSIFIAHRLSTVVDADEIIVLDQGKVAERGTHHGLLANPHSIYSEMWHTQSSRVQNHDNPKWEAKKENISKEEERKKLQEEIVNSVKGCGNCSC |  |  | 710 ± 300 | 0.28 |
| ABCB7 (Homo sapiens; E433K) (protein) HSAILIRPLVSVSGSGPQWRPHQLGALGTARAYQIPESLKSITWQRLGKGNSGQFLDAAKALQVWPLIEKRTCWHGHAGGGLHTDPKEGLKDVDTRKIIKAMLSYVWPKDRPDLRARVAISLGFLGGAKAMNIVVPFMFKYAVDSLNQMSGNMLNLSDAPNTVATMATAVLIGYGVSRAGAAFFNEVRNAVFGKVAQNSIRRIAKNVFLHLHNLDLGFHLSRQTGALSKAIDRGTRGISFVLSALVFNLLPIMFEVMLVSGVLYYKCGAQFALVTLGTLGTYTAFTVAVTRWRTRFRIEMNKADNDAGNAAIDSLLNYETVKYFNNERYEAQRYDGFLKTYETASLKSTSTLAMLNFGQSAIFSVGLTAIMVLASQGIVAGTLTVGDLVMVNGLLFQLSLPLNFLGTVYRKTRQALIDMNTLFTLLKVDTQIKDKVMASPLQITPQTATVAFDNVHFEYIEGQKVLSGISFEVPAGKKVAIVGGSGSGKSTIVRLLFRFYEPQKGSIYLAGQNIQDVSLESLRRAVGVVPQDAVLFHNTIYYNLLYGNISASPEEVYAVAKLAGLHDAILRMPHGYDTQVGERGLKLSGGEKQRVAIARAILKDPPVILYDEATSSLDSITEETILGAMKDVVKHRTSIFIAHRLSTVVDADEIIVLDQGKVAERGTHHGLLANPHSIYSEMWHTQSSRVQNHDNPKWEAKKENISKEEERKKLQEEIVNSVKGCGNCSC |  |  | 490 ± 110 | 0.37 |
